Experimental data from patent US20260028422A1 (CONCEPT TO MEDICINE BIOTECH, published 2026).

B1: 252H9D5 chimeric monoclonal antibody (antibody, V domains shown)
VH: QVTLRESGPGILQPSQTLSLTCSFSGFSLNTFGMGVGWIRQSSGKGLKWLAHIWWDDDKFYNPALKSRLTISKDTSKNQVFLKIANVDTTDTATYYCARIEGGLPYYYDYWGQGTPLIVSS
VL: DIVMTQSQKIMSTSVGDRISVTCKASQIVGTNVVWYQQKPGQSPKALIYSTSYRYSGVPDRFTGSRSGTDFTLTISNVQSEDLANYFCQQYNSYPFTFGSGTKLEIK
B2: 252C12B10 chimeric monoclonal antibody (antibody, V domains shown)
VH: QVQLQQPGTELVKPGASVKLSCKTSGYTFTSYWMHWMKQRPGQGLEWLGHINPSTGGSNYNEKFKSKATLTVDKSSNTAYMQLSSLTSEDSAVYYCARPRGFYGYSYWYFDVWGSGTTVTVSS
VL: DIQMTQTTSSLSASLGDRVTISCSASQDINNYLNWYQHKPDGTIKVLIYFTSSLHSGVPSRFSGSGSGTEYSLTISNLEPEDIATYYCQQYSKLPPTFGSGTKLEIK
B3: 247E5A8 chimeric monoclonal antibody (antibody, V domains shown)
VH: DVQLQESGPGLVKPSQSLSLTCSVTGYSITGGYYWTWIRQFPGNKLEWMGYISYDGDNNYNPSLKNRISITRDTSKNQFFLNLNSVTTEDTATYYCAREGGRLRTMDYWGQGTSVTVSS
VL: QIVLTQSPAIMSASPGEKVTITCRASSSVNYMHWFQQKPGTSPKLWIYTTSNLASGVPARFSGSGSGTSYSLTISRMEAEDAATYYCQQRSSYPFTFGSGTKLEIK

Columns and labels:
human MerTK-his protein [1] = target: T1, human MerTK-his protein (human, UniProt Q12866 21-505); test: SPR Biacore T200, antibody captured on Protein A chip
T1 construct: extracellular domain; also called hMerTK-His; human MerTK protein
T1 sequence (looked up): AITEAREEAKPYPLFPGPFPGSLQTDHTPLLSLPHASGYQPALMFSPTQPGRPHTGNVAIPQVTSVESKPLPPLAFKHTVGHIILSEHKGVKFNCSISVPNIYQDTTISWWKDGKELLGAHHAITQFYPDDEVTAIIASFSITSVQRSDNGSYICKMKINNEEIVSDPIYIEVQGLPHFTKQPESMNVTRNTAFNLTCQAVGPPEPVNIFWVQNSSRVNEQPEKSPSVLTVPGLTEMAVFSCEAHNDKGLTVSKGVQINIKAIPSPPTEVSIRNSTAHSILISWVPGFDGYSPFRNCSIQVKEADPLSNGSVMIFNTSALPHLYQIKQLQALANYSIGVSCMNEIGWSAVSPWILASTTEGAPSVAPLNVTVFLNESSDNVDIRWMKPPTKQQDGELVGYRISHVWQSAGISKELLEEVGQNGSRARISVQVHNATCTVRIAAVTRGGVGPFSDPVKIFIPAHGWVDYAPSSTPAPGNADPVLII
Protocol: The binding affinity of the MerTK chimeric antibodies to human MerTK-his protein was tested with Biacroe™ T200 using a capture method. Briefly, the antibodies were captured with a Pro-A chip. […] The antigen was allowed to dissociate for 420-800 s. Data analysis was carried out using Biacore™ T200 evaluation software.

[2] = target: T2, human MerTK expressed on cells (human, UniProt Q12866 21-999); test: FACS on CHO-K1 cells overexpressing human MerTK, MFI (PE)
T2 construct: whole, on cells; also called CHO-K1-hMerTK; CHO-K1-MerTK
T2 sequence (looked up): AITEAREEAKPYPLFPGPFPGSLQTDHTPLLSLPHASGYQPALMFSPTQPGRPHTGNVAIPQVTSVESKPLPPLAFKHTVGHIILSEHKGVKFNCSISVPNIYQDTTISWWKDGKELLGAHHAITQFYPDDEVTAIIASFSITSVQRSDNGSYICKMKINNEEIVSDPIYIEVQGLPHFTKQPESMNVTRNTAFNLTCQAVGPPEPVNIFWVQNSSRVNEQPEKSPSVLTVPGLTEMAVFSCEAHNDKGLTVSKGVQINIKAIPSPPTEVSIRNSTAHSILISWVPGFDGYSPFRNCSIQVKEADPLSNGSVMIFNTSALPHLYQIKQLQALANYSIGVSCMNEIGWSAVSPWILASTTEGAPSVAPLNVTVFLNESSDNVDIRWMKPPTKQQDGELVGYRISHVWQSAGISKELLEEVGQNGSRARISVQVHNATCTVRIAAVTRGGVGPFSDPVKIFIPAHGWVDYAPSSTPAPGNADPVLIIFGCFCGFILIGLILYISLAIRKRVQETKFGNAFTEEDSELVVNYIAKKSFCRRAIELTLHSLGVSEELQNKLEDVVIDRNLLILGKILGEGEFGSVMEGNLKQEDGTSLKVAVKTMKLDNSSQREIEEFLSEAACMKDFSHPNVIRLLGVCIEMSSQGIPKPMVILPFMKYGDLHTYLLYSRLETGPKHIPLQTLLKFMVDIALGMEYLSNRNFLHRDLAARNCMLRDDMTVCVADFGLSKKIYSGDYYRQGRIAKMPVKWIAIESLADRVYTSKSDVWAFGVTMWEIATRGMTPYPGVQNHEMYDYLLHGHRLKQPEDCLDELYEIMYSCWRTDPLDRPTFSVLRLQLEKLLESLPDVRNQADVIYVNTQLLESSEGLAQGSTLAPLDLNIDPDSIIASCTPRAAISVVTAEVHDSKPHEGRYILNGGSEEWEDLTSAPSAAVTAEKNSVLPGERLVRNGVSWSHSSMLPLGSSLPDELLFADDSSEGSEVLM
Protocol: To evaluate the binding property to the antigen expressed on the cells, the chimeric monoclonal antibodies were analyzed for their binding to human MerTK overexpressed on CHO-K1 cells by FACS. Briefly, human MerTK overexpressing CHO-K1 (CHO-K1-MerTK) cells were firstly incubated with 5-fold serially diluted mAbs starting at 20 nM at 4° C. for 1 hour. After washing with FACS buffer, the PE conjugated anti-human IgG-Fc secondary antibody was added to each well and incubated at 4° C., for 30 mins. The mean fluorescence intensity (MFI) of PE were evaluated by QuantAnalyzer 16.

human MerTK-his protein [3] = target: T1, human MerTK-his protein; test: ELISA, coated human MerTK-his
Protocol: (§1) To evaluate the binding activity, the chimeric mAbs were subjected to ELISA test. Briefly, 96-well plates were coated with human or cyno MerTK-his protein at 2 μg/mL in PBS, 100 μL/well at 4° C. overnight, then blocked with 150 μL/well of 1% BSA. Five-fold dilutions of MerTK antibodies starting from 20 nM were added to each well and incubated for 1 hour at room temperature. The plates were washed with PBS/Tween-20 and then incubated with goat anti-human IgG Fe antibody conjugated with Horse Radish Peroxidase (HRP) for 30 minutes (mins) at room temperature. After washing, the plates were developed with TMB substrate and subsequent stop solution was added to complete the reaction. The signal from each well was read by spectrophotometer at OD 450 nm.

cyno MerTK-his protein = target: T3, cyno MerTK-his protein (cynomolgus, UniProt A0A2K5V1H9 27-505); test: ELISA, coated cyno MerTK-his
T3 construct: also called cyno MerTK protein; Cynomolgus
T3 sequence: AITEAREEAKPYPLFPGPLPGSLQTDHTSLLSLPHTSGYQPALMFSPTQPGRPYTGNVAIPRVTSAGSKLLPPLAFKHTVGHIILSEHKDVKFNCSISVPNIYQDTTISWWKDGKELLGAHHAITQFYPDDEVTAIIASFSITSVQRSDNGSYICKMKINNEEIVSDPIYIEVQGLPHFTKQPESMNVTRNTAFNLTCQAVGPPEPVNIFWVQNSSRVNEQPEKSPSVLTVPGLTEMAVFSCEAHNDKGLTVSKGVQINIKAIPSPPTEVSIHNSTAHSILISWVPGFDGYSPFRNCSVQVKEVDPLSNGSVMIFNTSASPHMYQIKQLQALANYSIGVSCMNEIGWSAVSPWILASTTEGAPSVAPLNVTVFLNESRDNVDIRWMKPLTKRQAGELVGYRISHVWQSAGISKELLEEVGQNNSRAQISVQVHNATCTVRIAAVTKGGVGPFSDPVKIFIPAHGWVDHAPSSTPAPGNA
Protocol: as §1

Row | Binder | Kd (human MerTK-his protein [1]) | koff (human MerTK-his protein [1]) | kon (human MerTK-his protein [1]) | EC50 [2] | Top [2] | EC50 (human MerTK-his protein [3]) | EC50 (cyno MerTK-his protein)
1 | B1 | 9850 pM | 0.00287 s⁻¹ | 292000 M⁻¹ s⁻¹ | 120 pM | 7290 MFI (PE) | 52 pM | 150 pM
2 | B2 | 5330 pM | 0.00103 s⁻¹ | 193000 M⁻¹ s⁻¹ | 63 pM | 6040 MFI (PE) | 39 pM | 40 pM
3 | B3 | 4590 pM | 0.000596 s⁻¹ | 130000 M⁻¹ s⁻¹ | 120 pM | 10800 MFI (PE) | 32 pM | 37 pM
